Measured values as given in patent US20100261620A1 (published 2010).
Where a chain is given by its changes, count along the chain named.

B1: M464 (antibody, V domains shown)
VH: QVTLKESGPVLVKPTETLTLTCTVSGFSLSTYGMGVGWIRQPPGKALEWLAHIWWDDVKRYNPALKSRLTISKDTSKSQVVLTMTNMDPVDTATYYCARMGSDYDVWFDYWGQGTLVTVSS
VL: EIVLTQSPATLSLSPGERATLSCRASKSISKYLAWYQQKPGQAPRLLIYSGSTLQSGIPARFSGSGSGTDFTLTISSLEPEDFAVYYCQQHEWGPYTFGQGTKLEIK
notes: anti-IL-13, human IgG1
B2: M460 (anti-IL-13) (antibody, V domains shown)
VH: B1 VH
VL: EIVLTQSPATLSLSPGERATLSCRASKSISKYLAWYQQKPGQAPRLLIYSGSTLQSGIPARFSGSGSGTDFTLTISSLEPEDFAVYYCQQHDYPYTFGQGTKLEIK
B3: M1295 (antibody, V domains shown)
VH: B1 VH with M34V, M100L
VL: B2 VL
B4: M442 (antibody, V domains shown)
VH: B1 VH
VL: B2 VL with H91Q, Y93G
B5: M480 (antibody, V domains shown)
VH: B1 VH
VL: B2 VL with H91Q, Y93S
B6: M1292 (antibody, V domains shown)
VH: B1 VH with M34E, M100L
VL: B2 VL
B7: M1286 (antibody, V domains shown)
VH: B1 VH with M34S, M100L
VL: B2 VL
B8: M1375 (antibody, V domains shown)
VH: B1 VH with M34Q, M100L
VL: B2 VL
B9: M468 (antibody, V domains shown)
VH: B1 VH
VL: B1 VL with E92F
notes: anti-IL-13, human IgG1
B10: M476 (antibody, V domains shown)
VH: B1 VH
VL: B1 VL with E92S, W93V
notes: anti-IL-13, human IgG1
B11: M465 (antibody, V domains shown)
VH: B1 VH
VL: B1 VL with E92D, W93N, G94S
notes: anti-IL-13, human IgG1
B12: M478 (antibody, V domains shown)
VH: B1 VH
VL: B1 VL with E92N, W93H
notes: anti-IL-13, human IgG1
B13: M482 (antibody, V domains shown)
VH: B1 VH
VL: B1 VL with E92L, W93D, G94S
notes: anti-IL-13, human IgG1; printed changes are the same as for M470
B14: M475 (antibody, V domains shown)
VH: B1 VH
VL: B1 VL with E92L, W93M
notes: anti-IL-13, human IgG1
B15: M467 (antibody, V domains shown)
VH: B1 VH
VL: B1 VL with E92S, G94A
notes: anti-IL-13, human IgG1
B16: M471 (antibody, V domains shown)
VH: B1 VH
VL: B1 VL with H91P, E92I, W93D, G94A
notes: anti-IL-13, human IgG1
B17: M474 (antibody, V domains shown)
VH: B1 VH
VL: B1 VL with E92D, W93L
notes: anti-IL-13, human IgG1
B18: M479 (antibody, V domains shown)
VH: B1 VH
VL: B1 VL with H91P, E92L, W93D, G94T
notes: anti-IL-13, human IgG1
B19: M477 (antibody, V domains shown)
VH: B1 VH
VL: B1 VL with E92S, W93S
notes: anti-IL-13, human IgG1
B20: M469 (antibody, V domains shown)
VH: B1 VH
VL: B1 VL with E92D, G94E
notes: anti-IL-13, human IgG1
B21: M1268 (antibody, V domains shown)
VH: B1 VH with M34V, M100L
VL: B1 VL with E92N, W93E, G94Y
notes: anti-IL-13, human IgG1; text gives the Met positions as 34 and 100; copies: 2 + 2
B22: M466 (antibody, V domains shown)
VH: B1 VH
VL: B1 VL with E92D, G94S
notes: anti-IL-13, human IgG1
B23: M473 (antibody, V domains shown)
VH: B1 VH
VL: B1 VL with E92D, W93R, G94D
notes: anti-IL-13, human IgG1
B24: M472 (antibody, V domains shown)
VH: B1 VH
VL: B1 VL with H91P, E92L, W93D, G94S
notes: anti-IL-13, human IgG1
B25: M470 (antibody, V domains shown)
VH: B1 VH
VL: B1 VL with E92L, W93D, G94S
notes: anti-IL-13, human IgG1
B26: 4A5 Fab (Fab, V domains shown)
VH: EVQLQQSGPELVKPGASVKISCKASGYTFTDYYMNWVKQSHGKSLEWIGGINPNNGGTSYNQKFKGKATLTVDKSSSTAYMELRSLTSEDSAVYYCARNDGYRGYAMDYWGQGTSVTVSS
VL: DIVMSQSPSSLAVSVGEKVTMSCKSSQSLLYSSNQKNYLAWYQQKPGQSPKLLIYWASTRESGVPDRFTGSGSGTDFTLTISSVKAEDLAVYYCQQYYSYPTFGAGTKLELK
notes: mouse variable domains; also called 4A5 chimera; chimeric 4A5 Fab

Assays:
IL-13 = IL-13 (Homo sapiens (Human), UniProt P35225 35-146, limits assumed); test: Biacore
Chain of IL-13 (P35225 35-146 limits assumed): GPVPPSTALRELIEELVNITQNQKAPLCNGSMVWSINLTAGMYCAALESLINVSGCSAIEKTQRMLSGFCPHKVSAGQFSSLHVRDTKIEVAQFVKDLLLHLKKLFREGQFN

[1] = molecular target: T1, human CD147 His-tagged N-terminal domain (human, UniProt P35613-2 20-117); test: SPR, CD147 coupled to the surface
T1 construct: also called N-terminal human CD147; EMMPRIN; not shown: His tag
T1 chain: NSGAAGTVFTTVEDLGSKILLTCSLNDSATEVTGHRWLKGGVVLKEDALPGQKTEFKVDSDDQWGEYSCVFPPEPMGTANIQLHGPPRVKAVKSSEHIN

Row | Binder | Kd (IL-13) | koff (IL-13) | kon (IL-13) | Kd [1]
1 | B1 | 0.055 nM | 7.1e-05 s⁻¹ | 1.29e+06 M⁻¹ s⁻¹ | 
2 | B2 | 0.008 nM | 8e-06 s⁻¹ | 1.03e+06 M⁻¹ s⁻¹ | 
3 | B3 | 0.015 nM | 1.8e-05 s⁻¹ | 1.2e+06 M⁻¹ s⁻¹ | 
4 | B4 | 0.04 nM | 5.3e-05 s⁻¹ | 1.32e+06 M⁻¹ s⁻¹ | 
5 | B5 | 0.021 nM | 3.9e-05 s⁻¹ | 1.86e+06 M⁻¹ s⁻¹ | 
6 | B6 | 0.008 nM | 8e-06 s⁻¹ | 1.05e+06 M⁻¹ s⁻¹ | 
7 | B7 | 0.009 nM | 1.2e-05 s⁻¹ | 1.28e+06 M⁻¹ s⁻¹ | 
8 | B8 | 0.024 nM | 2.7e-05 s⁻¹ | 1.1e+06 M⁻¹ s⁻¹ | 
9 | B9 | 0.094 nM | 0.0001 s⁻¹ | 1.06e+06 M⁻¹ s⁻¹ | 
10 | B10 | 0.315 nM | 0.000321 s⁻¹ | 1.02e+06 M⁻¹ s⁻¹ | 
11 | B11 | 0.306 nM | 0.000336 s⁻¹ | 1.1e+06 M⁻¹ s⁻¹ | 
12 | B12 | 0.208 nM | 0.000247 s⁻¹ | 1.19e+06 M⁻¹ s⁻¹ | 
13 | B13 | 0.296 nM | 0.0003 s⁻¹ | 1.02e+06 M⁻¹ s⁻¹ | 
14 | B14 | 0.187 nM | 0.000213 s⁻¹ | 1.14e+06 M⁻¹ s⁻¹ | 
15 | B15 | 0.452 nM | 0.000455 s⁻¹ | 1e+06 M⁻¹ s⁻¹ | 
16 | B16 | 0.253 nM | 0.000364 s⁻¹ | 1.44e+06 M⁻¹ s⁻¹ | 
17 | B17 | 0.365 nM | 0.000348 s⁻¹ | 950000 M⁻¹ s⁻¹ | 
18 | B18 | 0.192 nM | 0.00024 s⁻¹ | 1.25e+06 M⁻¹ s⁻¹ | 
19 | B19 | 0.495 nM | 0.00048 s⁻¹ | 970000 M⁻¹ s⁻¹ | 
20 | B20 | 0.1 nM | 0.000143 s⁻¹ | 1.43e+06 M⁻¹ s⁻¹ | 
21 | B21 | 0.621 nM | 0.001 s⁻¹ | 1.61e+06 M⁻¹ s⁻¹ | 
22 | B22 | 0.225 nM | 0.000219 s⁻¹ | 970000 M⁻¹ s⁻¹ | 
23 | B23 | 0.312 nM | 0.000403 s⁻¹ | 1.29e+06 M⁻¹ s⁻¹ | 
24 | B24 | 0.259 nM | 0.000375 s⁻¹ | 1.44e+06 M⁻¹ s⁻¹ | 
25 | B25 | 0.239 nM | 0.000311 s⁻¹ | 1.3e+06 M⁻¹ s⁻¹ | 
26 | B26 |  |  |  | 120 nM
